Assay: yeast display, Sf9 membrane polyspecificity reagent, FACS + sequencing; frameworks hold sequencing errors
How it was run: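 In a synthetic yeast display library (Saccharomyces cerevisiae BJ5465), nanobody expression was induced with galactose for 36–48 hours. FACS gates were set low and high (top ~1%) using anti-HA fluorescence for expression and streptavidin fluorescence for binding of the Sf9 membrane reagent. Each polyreactivity label is drawn from the gate of origin.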

QVQLVESGGGLVQAGGSLRLSCAASGRTFVGYAMGWYRQAPGKERELVAAISWSGGRTYYADSVKGRFTISRDNAKNTVYLQMNSLKPEDTAVYYCAALLYRTPYYPYYGYDYWGQGTQVTVSS
polyreactivity (PSR sort gate): high polyreactivity

QVQLVESGGGLVQAGGSLRLSCAASGLISYAYAMGWYRQAPGKERELVAAIRSSGSTYYADSVKGRFTISRDNAKNTVYLQMNSLKPEDTAVYYCAAYVWRRGDGYYYWGQGTQVTVSS
polyreactivity (PSR sort gate): high polyreactivity

QVQLVESGGGLVQAGGSLRLSCAASGSTFSRYAMGWYRQAPGKEREFVAAISRRAGGTYYADSVKGRFTISRDNAKNTVYLQMNSVKPEDTAVYYCAKVLPRDYIGRATYDYWGQGTQVTVSS
polyreactivity (PSR sort gate): high polyreactivity

QVQLVESGGGLVQAGGSLRLSCAASGYIFIVNAMGWYRQAPGKERELVAAINSSGGNTYYADSVKGRFTISRDNAKNTVYLLMNSLKPEDTAVYYCAADQAKDISVEYDYWGQGTQVTVSS
polyreactivity (PSR sort gate): low polyreactivity

QVQLVESGGGLVQAGGSLRLSCAASGSTFGRYAMGWYRQAPGKERELVAAITSGSSTNYADSVKGRFTISRDNAKNTVYLPMNSLKPEDTAVYYCAAPKSRQSTYYYWGQGTQVTVSS
polyreactivity (PSR sort gate): high polyreactivity

QVHLVESGGGLVQAGGSLRLSCAASGITFRRNTMGWYRQAPGKERELVATISWRGGNTFYADSVKRRFTISRDNAKNTVYLQMHSLKPEDTAVYYCAVAFKGPSGYQYDYWGQGTQVTVSS
polyreactivity (PSR sort gate): high polyreactivity

QVQLVESGGGIVQAGGSHRLSCAASGRTFRYNAMGWYRQAPGKERELVAAISGRGSSTYYADSVKGRFTISRDNAKNTVYLQMNSLKPEDTAVYYCAALPASVRRPGWHDYWGQGTQVTVSS
polyreactivity (PSR sort gate): high polyreactivity

QVQLVESGGGLVQAGGSLRLSCAASGITFGPYAMGWYRQATGKERELVAAINWSGGSTYYADSVKGRFTISRDNAKTTVYLQMNSLKPEDTAVYYCAAEPYKRLYQFYFWGQGTQVTVSS
polyreactivity (PSR sort gate): high polyreactivity

QVQLVESGGGLVQAGGSLRLSCAASGLIFSWNAMGWYRQAPGKERELVASISYSGGRTYYADSVKGRFTISRDNAKNTVYLQMNSLKPEDTAVYYCAADTNATTDPEMDYWGQGTQVTVSS
polyreactivity (PSR sort gate): low polyreactivity

QVQLVESGGGLVQAGGSLRLSCAASGSIFTYYTMGWYRQAPGKERELVAAIRWSAGRTYYADSVKGRFTISRDNAKNTVYLQMNSLKPEDTAVYYCAAAERLRHGLKFDYWGQGTQVTVSS
polyreactivity (PSR sort gate): high polyreactivity

QVQLVESGGGLVQAGGSLRLSCAASGFTFAFYAMGWYRQAPGKERELVAAITGSGGSTYYADSVKGRFTISRDNAKNTVYLQMNSLKPEDTAVYYCAADLVVDYEWYDYWGQGTQVTVSS
polyreactivity (PSR sort gate): high polyreactivity

QVQLVESGGGLVQAGGSLRLSCAASGFIFKWNAMGWYRPAPGKERELVAAISWHGGSTNYADSVKGRFTISRDNAKNTVYLQMNSLKQEDTAVYYCAKQQSPYYPSTLDYWGQGTQVTVSS
polyreactivity (PSR sort gate): high polyreactivity

QVQLVESGGGLVQAGGSLRLSCAASGRTFYPYAMGWYRQAPGKERELVATIRWTGGSTYYADSVKGRFTISRDNAKNTVYLQMNSLKPEDTAVYYCAAQNYFAFIRTYRYVHRPTYYYWGQGTQVTVSS
polyreactivity (PSR sort gate): high polyreactivity

QVQLVETGGGLVQAGGSLRLSCAASGSIFRDNAMGWYRQAPGKESELVAAINVRDGDTFYADSVKGRFTISRDNAKNTVYLQMNSLKPEDTAVYYCAVAGATSYFAYDSWGQGTQVTVSS
polyreactivity (PSR sort gate): low polyreactivity

QVQVVESGGGLVQAGGSLRLSCAPSGRIFTIYVMGWYRQAPGKERELVATITYSSGSTTYADSVKGRFTISRDNAKNTVYLQMNSLKPEDTAVYYCAKKYYTGYGYWGQGTQVTVSS
polyreactivity (PSR sort gate): low polyreactivity

QVQLVESGGGLVQAGGSLRLSCAASGSTFHRYTMGWYRQAPGKERELVAAISSGVNTDYADSVKGRFTISRDNAKNTVYLQMNSLKPEDTEVYYCNTSFGSPQVVRYEYWGQGTQVTVSS
polyreactivity (PSR sort gate): low polyreactivity

QVQHVDSGGGLVQAGGSLSLSCAASGSIFWPNTMGWYRQARGKERELVATISSGADTSYADSVKGRFTISRDNAKNTVYLQMNSLKPADTAVYYCAIRITVDDDHPRAQTFNYCGQGTQVTVSS
polyreactivity (PSR sort gate): low polyreactivity

QVQLVESGGGLVQAGGSLRLSCAASGSIFIDYVMGWYRQAPGTERELVAAISKRGGSTYYADSVKGRFTISRDNAKNTVYLQMNSLKPEDTAVYYCNAYRIGVYTAKDGYWGQGTQVTVSS
polyreactivity (PSR sort gate): high polyreactivity

QVQLVESAGGLVQAAGSLRLSCAASGFVFYSYAMGWYRQAPGKERELVAVISRSGGSTYYADSVKGRFTISRDNAKNTVYFQMNSLKPEDTAVYYCAAKYHGQERGAPPFYYWGQGTQVTVSS
polyreactivity (PSR sort gate): high polyreactivity

QVQLVESGGGLVQAGGSLRLSCAASGLTFGGNAMGWYRQAPGKERELVAAISSGGSTNYADSVKGRFTISRDNAKNTVYLQMNSLKPEDTAVYYCAARDRPGNYFTVYGYWGQGTQVTVSS
polyreactivity (PSR sort gate): low polyreactivity

QVQLVESGGGLVQAGGSLRLSCAASGSTFRYNAMGWYRQAPGKERELVASITWSGGDTYYADSVKGRFTISRDNAKNTVYLQMNSLKPEDTAVYYCAKKGYASRYFIYDYWGQGTQVTVSS
polyreactivity (PSR sort gate): low polyreactivity

QVQLVESGGGLVQAGGSLRLSCAASGSIFSLYAMGWYRQAPGKEWELVAAISRGGSTNYADSVKGRFTISRDNAKNTVYLQMNSLKPEDTAVYYCNAGFGVRRKHITFYTWYDYWGQGTQVTVSS
polyreactivity (PSR sort gate): low polyreactivity

QVQLVESGGGLVQAGGSLRLSCAASGSIFRYYAMGWYRQAPGKERELVAAISSNGGSTYYADSVKGRFTISRDNAKNTVYLQMNSLKPEDTAVYYCAALFRRAPGYYWGQGTQVTVSS
polyreactivity (PSR sort gate): high polyreactivity

QVQLVESGGGLVQAGGSLRLSCAASGFTFLYYDMGWYRQAPGKERELVAAITNDDSTYYADSVKGRFTISRDNAKNTVYLQMNSLKPEDTAVYYCNADVWYYTPYDYWGQVTQVTVSS
polyreactivity (PSR sort gate): high polyreactivity

QVQLVESGGGLVQAGGSLRLSCAASGSNFGYYAMGWYRQAPGQERELVAAINSSGGSTYYADSVKGRFTISRDNAKNTVYLQMNSLKPEDTAVYYCAVRTRYKFNYWGQGTQVTVSS
polyreactivity (PSR sort gate): low polyreactivity

QVQLVESGGGLVQAGGSLRLSCAASGITFWTYAMGWYIQAPGKERELVAAISNGGSTSYADSVKGRFTISRDNAKNTVYLQMNSLKPEDTAVYYCAADWATHRPWYWWVYYWGQGTQVTVSS
polyreactivity (PSR sort gate): low polyreactivity

QVQLVESGGGLVQAGGSLRLSCAASGRTSRVYAMGWYRQAPGTERELVAAITWRGGNTYYADSVKGRFTISRDHAKNTVYLQMNSMKPEDTAVYYCAADPWSYGSWHGDSWGQGTQVTVSS
polyreactivity (PSR sort gate): high polyreactivity

QVHLVESGGGLVQAGGSLRLSCAASGSIFHRYAMGWYRQAPGKEREFVAAISRSGGSSNYADSVKGRFTISRDNAKNTVYLQMNSLKPEDTAVYYCAARTVTTGGSRYDYWAQGTQVTVSS
polyreactivity (PSR sort gate): high polyreactivity

QVQLVESGGGLVQAGGSLRLSCAASGSIFDLNAMGWYRQAPGKERELVAAISKSGGSTYYADSVKGRFTISRDNAKNTVYLQMNSLKPEDTAVYYCAKDRKYHLSGGYDYWGQGSQVTVSS
polyreactivity (PSR sort gate): low polyreactivity

QVQLVESGGGLVQAGGSLRLSCAASGLTFGYYAMGWYRQAPGKERELVAVISGGGGTHYADSVKGRFTISRDNAKNTVYLQMNSLKPEDTAVYYCAARYRAQQIARYYYWGQGTQVTVSS
polyreactivity (PSR sort gate): high polyreactivity

QVQLVESGGGLVQAGGSLRLSCAASGSIFWVNAMGWYRQAPGQVSELVAAINYSDGSTSYADSVKGRFTISRDNAKNTVYLQMNSLKPEDTAVYYCNAESFELMYYWGQGTQVTVSS
polyreactivity (PSR sort gate): low polyreactivity

QVQLVESGGGLVQAGGSLRLSCAAYGSIFSTYAMGWYRQAPGKERELVAAISRSGGSTYYADSVKGRFTISRDNAKNTVYLQMNSLKPEDTAVYYCAKVGRRQRYDYWGQGTQVTVSS
polyreactivity (PSR sort gate): high polyreactivity

QVQLVESGGGLVQAGGSLRLSCAASGTTFDSNGRGWYREAPGKERELVAAIRSGDSTYYADSVKGRCTISRDNAKNTVYLQMISLKPEDTAVYYCNKDEATFLSKDDYWGQGTQVTVSS
polyreactivity (PSR sort gate): low polyreactivity

QVQLVESGGGLVQAGGSLRLSCAASAFIYSSYAMGWYRQAPGKEMELVAAISYSGGSTYYADSVKGRFTISRDTAKNTVYLQMNRLKPEDTAVYYCAAELQIKIGFYTGEYEYYYWGQGTQVTVSS
polyreactivity (PSR sort gate): high polyreactivity

QVQLVESGGGLVQAGGSLRLSCAASGITFRRYAMGWYRPAPGKERELVAVISVSGGRTHYADSVKGRFTISRDNAKNTVYLQMNSLKPEDTAVYYCAAQFSYRYYTDEVGYWGQGTQVTVSS
polyreactivity (PSR sort gate): high polyreactivity

QDQLVESGGGLVQAGGSLRLSCDASGSIFEQNAMGWYRPAPGKERELVAAISSGSTNYADSVKGRFTISRDNAKNTVYLQMNSLKPEDTAVYYCAKRWRRRFVDVWSLYDYWGQGTQVTVSS
polyreactivity (PSR sort gate): low polyreactivity

QVQLVESGVGLVQAGGSLRLSCAASGIIFYDNALGWYRQAPGKERELVAAITDSGGTTYYADSVKGRFTISRDNAKNTVYLEMNSLKPEDNAVYYCAAETTATHGFAYDYWGQGTQVTVSS
polyreactivity (PSR sort gate): low polyreactivity

QVQLVESGGVLVQAGGSLRISCAASGFIFAYNAMGWYRQAPGKETELVAAISWNGGNTYYADSVKGRFTISRDNAKNTVYLQMNSLKPEDTAVYYCAAIPKPFRSYGYWGKGTQVTVSS
polyreactivity (PSR sort gate): high polyreactivity

QVQLVESGGGLVQAGGILRLSCAASGFIFAYYAMGWYRQAPGKEREFVAVITSSGGRTYYADSVKGRFTISRDNAKNTVYLQMNSLNPVDTAVYYCATSRGYANKYYYWGQGSQVTVSS
polyreactivity (PSR sort gate): low polyreactivity

QVQLVESVGGLVQAGASLRLSCAASGRTFATYAKGWYRQAPGKERELVAAISRSGGSTYYADSVKGRFTISRDNAKNTVYLQMHSLKPEDTAGYYCAARYVRQYYRAEDYWGQGTQVTVSS
polyreactivity (PSR sort gate): high polyreactivity

QMQLQESGGGLVQAGGSLRLSCAPSGTIIRVRYMGWHRQAPGKDRELVAGINGGTTTYNSDSVIGRFTISRDNANNTVFLQMNSLKPDDTAVYKCAAGASRLTYYDYWGQGTQVTVSS
polyreactivity (PSR sort gate): low polyreactivity

QVQLVESGGGLVQAGGSLRLSCAASGFIFVLYTMGWYRQAPGKEREMVASITQSGGSTYYADSVKGRFTISRDNAKNTVYLQMNSLKPEDTAVYYCAAVWAHEWWELDYWGQGTQVTVSS
polyreactivity (PSR sort gate): low polyreactivity

QDQLVESGGGLVQAGGSLRLSCAASGRTFWRYAMGWYRQAPGKERELVAAITSGGGSTYYADSVKGRFTISRDTAKNTVYLQMNSLKPEDTAVSYCNRAGRGRSFKGDYWGQGTQVTVSS
polyreactivity (PSR sort gate): high polyreactivity
